The record followed here is the supplement of paper PMC11246515.

± gives the standard deviation of the averaged measurements.

This data set can be described thus: total protein half-life in vivo (active degradation + dilution); higher = more stable protein.
Setting [1] is: E. coli NCM3722 delta-clpP delta-lon delta-hslV, growth: N-lim chemostat, doubling time 6 h.
Where [2] appears, read: E. coli NCM3722 delta-clpP, growth: N-lim chemostat, doubling time 6 h.
[3] abbreviates: E. coli NCM3722 delta-hslV, growth: N-lim chemostat, doubling time 6 h.
The mark [4] stands for this setting: E. coli NCM3722 delta-lon, growth: N-lim chemostat, doubling time 6 h.
[5] abbreviates: E. coli NCM3722 delta-smpB, growth: N-lim chemostat, doubling time 6 h.
Where [6] appears, read: wild type E. coli NCM3722, growth: C-lim chemostat, doubling time 3 h.
Where [7] appears, read: wild type E. coli NCM3722, growth: C-lim chemostat, doubling time 6 h.
Where [8] appears, read: wild type E. coli NCM3722, growth: C-lim chemostat, doubling time 12 h.
[9] abbreviates: wild type E. coli NCM3722, growth: N-lim chemostat, doubling time 6 h.
The mark [10] stands for this setting: wild type E. coli NCM3722, growth: N-lim chemostat, doubling time 12 h.
The mark [11] stands for this setting: wild type E. coli NCM3722, growth: P-lim chemostat, doubling time 6 h.
The mark [12] stands for this setting: wild type E. coli NCM3722, growth: P-lim chemostat, doubling time 12 h.

As to “MYQHHNWQGALLDYPVSKVVCVGSNYAKHIKEMGSAVPEEPVLFIKPETALCDLRQPLAIPSDFGSVHHEVELAVLIGATLRQATEEHVRKAIAGYGVALDLTLRDVQGKMKKAGQPWEKAKAFDNSCPLSGFIPAAEFTGDPQNTTLSLSVNGEQRQQGTTADMIHKIVPLIAYMSKFFTLKAGDVVLTGTPDGVGPLQSGDELTVTFDGHSLTTRVL”, the “total protein half-life in vivo” value turned out to be 6.01 ± 0.48 h under setting [1]; 4.64 ± 0.98 h under setting [2]; 5.44 ± 0.96 h under setting [3]; 5.67 ± 0.93 h under setting [4]; 4.95 ± 0.3 h under setting [5]; 3.26 ± 0.39 h under setting [6]. For the same sequence, the “total protein half-life in vivo” value is, setting by setting: under setting [7], 6.22 ± 0.61 h; under setting [8], 11.2 ± 0.037 h; under setting [9], 5.18 ± 0.86 h; under setting [10], 10.1 ± 0.033 h; under setting [11], 5.856 ± 0.052 h; under setting [12], 12.6 ± 0.54 h.

For the sequence “MSDKFGEGRDPYLYPGLDIMRNRLNIRQQQRLEQAAYEMTALRAATIELGPLVRGLPHLRTIHRQLYQDIFDWAGQLREVDIYQGDTPFCHFAYIEKEGNALMQDLEEEGYLVGLEKAKFVERLAHYYCEINVLHPFRVGSGLAQRIFFEQLAIHAGYQLSWQGIEKEAWNQANQSGAMGDLTALQMIFSKVVSEAGESE”, the “total protein half-life in vivo” value is 4.96 ± 0.27 h under setting [1]; 4.09 ± 0.47 h under setting [2]; 4.81 ± 0.64 h under setting [3]; 4.4 ± 0.57 h under setting [4]; 4.69 ± 0.42 h under setting [5]; 6.07 ± 0.18 h under setting [7]. The “total protein half-life in vivo” value under setting [8] is 10.2 ± 1.9 h; the “total protein half-life in vivo” value under setting [9] was determined as 4.39 ± 0.17 h; the “total protein half-life in vivo” value under setting [10] amounted to 7.12 ± 0.43 h; the “total protein half-life in vivo” value under setting [11] came out at 6.02 ± 0.4 h; the “total protein half-life in vivo” value under setting [12] was 7.72 ± 3.9 h.

Turning to “MTSLYLASGSPRRQELLAQLGVTFERIVTGIEEQRQPQESAQQYVVRLAREKARAGVAQTAKDLPVLGADTIVILNGEVLEKPRDAEHAAQMLRKLSGQTHQVMTAVALADSQHILDCLVVTDVTFRTLTDEDIAGYVASDEPLDKAGAYGIQGLGGCFVRKINGSYHAVVGLPLVETYELLSNFNALREKRDKHDG”, the “total protein half-life in vivo” value by setting is: under setting [1], 4.55 ± 0.58 h; under setting [2], 3.38 ± 0.24 h; under setting [3], 3.17 ± 0.25 h; under setting [4], 3.02 h; under setting [5], 3.26 ± 0.49 h; under setting [6], 3.2 ± 0.29 h. Besides, the “total protein half-life in vivo” value is, setting by setting: under setting [7], 5.629 ± 0.034 h; under setting [8], 8.84 ± 0.45 h; under setting [9], 3.15 ± 0.4 h; under setting [10], 4.52 h; under setting [11], 5.41 h; under setting [12], 11.9 ± 1.7 h.

Consider “MSWQEKINAALDARRAADALRRRYPVAQGAGRWLVADDRQYLNFSSNDYLGLSHHPQIIRAWQQGAEQFGIGSGGSGHVSGYSVVHQALEEELAEWLGYSRALLFISGFAANQAVIAAMMAKEDRIAADRLSHASLLEAASLSPSQLRRFAHNDVTHLARLLASPCPGQQMVVTEGVFSMDGDSAPLAEIQQVTQQHNGWLMVDDAHGTGVIGEQGRGSCWLQKVKPELLVVTFGKGFGVSGAAVLCSSTVADYLLQFARHLIYSTSMPPAQAQALRASLAVIRSDEGDARREKLAALITRFRAGVQDLPFTLADSCSAIQPLIVGDNSRALQLAEKLRQQGCWVTAIRPPTVPAGTARLRLTLTAAHEMQDIDRLLEVLHGNG”, for which the “total protein half-life in vivo” value turned out to be 4.06 ± 0.98 h under setting [1]; 3.57 ± 0.11 h under setting [2]; 3.29 ± 0.14 h under setting [3]; 3.88 ± 0.17 h under setting [4]; 3.54 ± 0.15 h under setting [5]; 3.07 ± 0.22 h under setting [6]. Besides, the “total protein half-life in vivo” value was 5.16 ± 0.21 h under setting [7]; 8.97 ± 0.33 h under setting [8]; 3.58 ± 0.21 h under setting [9]; 5.24 ± 0.38 h under setting [10]; 5.643 ± 0.044 h under setting [11]; 10.9 ± 0.2 h under setting [12].

In the case of “MKLIRGIHNLSQAPQEGCVLTIGNFDGVHRGHRALLQGLQEEGRKRNLPVMVMLFEPQPLELFATDKAPARLTRLREKLRYLAECGVDYVLCVRFDRRFAALTAQNFISDLLVKHLRVKFLAVGDDFRFGAGREGDFLLLQKAGMEYGFDITSTQTFCEGGVRISSTAVRQALADDNLALAESLLGHPFAISGRVVHGDELGRTIGFPTANVPLRRQVSPVKGVYAVEVLGLGEKPLPGVANIGTRPTVAGIRQQLEVHLLDVAMDLYGRHIQVVLRKKIRNEQRFASLDELKAQIARDELTAREFFGLTKPA [P0AG40]”, the “total protein half-life in vivo” value was determined as 4.18 ± 0.72 h under setting [1]; 5.21 ± 0.77 h under setting [2]; 4.54 ± 0.2 h under setting [3]; 5.2 ± 0.77 h under setting [4]; 4.43 ± 0.14 h under setting [5]; 3.15 ± 0.15 h under setting [6]. Besides, the “total protein half-life in vivo” value was 5.64 ± 0.3 h under setting [7]; 10.5 ± 0.48 h under setting [8]; 4.62 ± 0.35 h under setting [9]; 7.426 ± 0.064 h under setting [10]; 5.441 ± 0.05 h under setting [11]; 11.83 ± 0.032 h under setting [12].

Consider “MSALNSLPLPVVRLLAFFHEELSERRPGRVPQTVQLWVGCLLVILISMTFEIPFVALSLAVLFYGIQSNAFYTKFVAILFVVATVLEIGSLFLIYKWSYGEPLIRLIIAGPILMGCMFLMRTHRLGLVFFAVAIVAIYGQTFPAMLDYPEVVVRLTLWCIVVGLYPTLLMTLIGVLWFPSRAISQMHQALNDRLDDAISHLTDSLAPLPETRIEREALALQKLNVFCLADDANWRTQNAWWQSCVATVTYIYSTLNRYDPTSFADSQAIIEFRQKLASEINKLQHAVAEGQCWQSDWRISESEAMAARECNLENICQTLLQLGQMDPNTPPTPAAKPPSMAADAFTNPDYMRYAVKTLLACLICYTFYSGVDWEGIHTCMLTCVIVANPNVGSSYQKMVLRFGGAFCGAILALLFTLLVMPWLDNIVELLFVLAPIFLLGAWIATSSERSSYIGTQMVVTFALATLENVFGPVYDLVEIRDRALGIIIGTVVSAVIYTFVWPESEARTLPQKLAGTLGMLSKVMRIPRQQEVTALRTYLQIRIGLHAAFNACEEMCQRVALERQLDSEERALLIERSQTVIRQGRDLLHAWDATWNSAQALDNALQPDRAGQFADALEKYAAGLATALSRSPQITLEETPASQAILPTLLKQEQHVCQLFARLPDWTAPALTPATEQAQGATQ”, for which the “total protein half-life in vivo” value by setting is: under setting [1], 5.28 h; under setting [2], greater than 8 h; under setting [6], 0.524 h.

Consider “MRLVQLSRHSIAFPSPEGALREPNGLLALGGDLSPARLLMAYQRGIFPWFSPGDPILWWSPDPRAVLWPESLHISRSMKRFHKRSPYRVTMNYAFGQVIEGCASDREEGTWITRGVVEAYHRLHELGHAHSIEVWREDELVGGMYGVAQGTLFCGESMFSRMENASKTALLVFCEEFIGHGGKLIDCQVLNDHTASLGACEIPRRDYLNYLNQMRLGRLPNNFWVPRCLFSPQE [P0A8P1]”, for which the “total protein half-life in vivo” value is 4.09 ± 0.21 h under setting [2] and 0.705 ± 0.05 h under setting [6].

In the case of “MKHTVEVMIPEAEIKARIAELGRQITERYKDSGSDMVLVGLLRGSFMFMADLCREVQVSHEVDFMTASSYGSGMSTTRDVKILKDLDEDIRGKDVLIVEDIIDSGNTLSKVREILSLREPKSLAICTLLDKPSRREVNVPVEFIGFSIPDEFVVGYGIDYAQRYRHLPYIGKVILLDE [P0A9M2]”, the “total protein half-life in vivo” value is, setting by setting: under setting [1], 4.48 ± 0.22 h; under setting [2], 4.53 ± 0.57 h; under setting [3], 4.14 ± 0.16 h; under setting [4], 5.16 ± 0.72 h; under setting [5], 4.08 ± 0.22 h; under setting [6], 2.88 ± 0.16 h. For the same sequence, the “total protein half-life in vivo” value by setting is: under setting [7], 4.78 ± 1.6 h; under setting [8], 9.38 ± 0.47 h; under setting [9], 4.126 ± 0.012 h; under setting [10], 7.29 ± 0.7 h; under setting [11], 5.5 ± 0.17 h; under setting [12], 12.9 ± 1.8 h.
